Test results reported in patent publication US20240002516A1 (4B TECHNOLOGIES SUZHOU, published 2024).
Like-named read-outs stand apart in the source and are kept apart here.

B1: chi-PHD48 (the chimeric antibody derived from muPHD48) (antibody, V domains shown)
VH: EVQLQQSGTVLARPGASVKMSCKASGYSFTTYWMHWVKQRPGQGLEWIGTIYPGNSDSSNNQKFKGKAKLTAVTSASTAYMELSSLTNEDSAVYYCTRFYYEDWYFDVWGAGTTVTVSS
VL: QIVLTQSPAIMSASPGEKVTISCSASSSVSYMYWFQQKPGSSPKPWIYRTSNLASGVPARFSGSGSGTSYSLTISSMEAEDAATYYCQQYHSYPPTFGGGTKLEIK
notes: Chimeric: VH in the pCDNA3.4-hIgG4 vector and VL in the pCDNA3.4-hKappa vector (human IgG4 / human kappa constant regions)
B2: control antibody pAb01 (antibody, V domains shown)
VH: EVQLVESGGGLVKPGGSLRLSCAASGFTFSGVSINWVRQAPGKGLEWVSSETTSSGTIYYADSVKGRFTISRDNAKNSLYLQMNSLRAEDTAVYYCARSYYYGMDVWGQGTTVTVS
VL: DIVMTQTPLSSPVTLGQPASISCRSSQSLVHRNGNTYLSWLQQRPGQPPRLLIYKISNRFSGVPDRFSGSGAGTDFTLKISRVEAEDVGVYYCMQARQFPLTFGGGTKVEIK
B3: muPHD49 (antibody, V domains shown)
VH: QVQLQQSGAELARPGASVKLSCKASGYTFSSYWMQWVKQRPGQGLEWIGAIYPGDDDTIYTQKFKGKATLTADKSSSTAYMQLSSLASEDSAVYYCARNYDYQAWFAYWGQGTLVTVSA
VL: QIVLTQSPALMSASPGEKVTMTCSASSSVSYMYWYQQKPRSSPKPWIYLTSNLASGVPARFSGSGSGTSYSLTISSMEAEDAATYYCQQWSSNPLTFGAGTKLELK
notes: Mouse hybridoma monoclonal antibody; also called muPHID49
B4: chi-PHD49 (antibody, V domains shown)
VH: QVQLQQSGAELARPGASVKLSCKASGYTFSSYWMQWVKQRPGQGLEWIGAIYPGDDDTIYTQKFKGKATLTADKSSSTAYMQLSSLASEDSAVYYCARNYDYQAWFAYWGQGTLVTVSA
VL: QIVLTQSPALMSASPGEKVTMTCSASSSVSYMYWYQQKPRSSPKPWIYLTSNLASGVPARFSGSGSGTSYSLTISSMEAEDAATYYCQQWSSNPLTFGAGTKLELK
notes: Chimeric: human IgG4 / human kappa constant regions (pCDNA3.4-hIgG4 and pCDNA3.4-hKappa vectors)
B5: PHD49-01 (humanized muPHD49) (antibody, human IgG4, V domains shown)
VH: QVQLVQSGAEVKKPGSSVKVSCKASGYTFSSYWMQWVRQAPGQGLEWIGAIYPGDDDTIYTQKFKGRATLTADKSTSTAYMELSSLRSEDTAVYYCARNYDYQAWFAYWGQGTLVTVSS
VL: DIQMTQSPSSLSASVGDRVTITCSASSSVSYMYWYQQKPGKAPKPWIYLTSNLASGVPSRFSGSGSGTDYTLTISSLQPEDFATYYCQQWSSNPLTFGQGTKLEIK
B6: PHD48-01 (humanized muPHD48) (antibody, human IgG4, V domains shown)
VH: QVQLVQSGAEVKKPGASVKVSCKASGYSFTTYWMHWVRQAPGQGLEWIGTIYPGNSDSSNNQKFKGRATLTADTSTSTAYMELSSLRSEDTAVYYCTRFYYEDWYFDVWGQGTMVTVSS
VL: DIQMTQSPSSLSASVGDRVTITCSASSSVSYMYWFQQKPGKAPKPWIYRTSNLASGVPSRFSGSGSGTDYTLTISSLQPEDFATYYCQQYHSYPPTFGGGTKVEIK

Legend:
[1] = target: T1, human TrkA on CellSensor TrkA-NFAT-bla CHO-K1 cells (human, UniProt P04629 33-796); assay: cell-based or functional assay
[2] = target: T2, extracellular domain (ECD) of human TrkA protein, N-terminal flag tag and C-terminal His tag (PHA) (human, UniProt P04629 33-423); assay: BLI (Octet Red384), as in Example 4
T2 construct: Made in 293-F cells and purified by IMAC; also called TrkA ECD protein; TrkA (ECD); not shown: flag tag at the N-terminus (after the signal peptide); His tag at the C-terminus
Method: (§1) The bio-layer interferometry (BLI) method was used to determine the affinities of the antibodies, employing Octet Red384. Briefly, anti-human Fc-coated biosensor AHQ tips (ForteBio) were put into PBS with 0.1% w/v bovine serum albumin and 0.05% Tween-20 for a minimum of 10 min in the pre-wetting plate. The purified antibodies (100 nM in PBS with 0.1% bovine serum albumin and 0.05% Tween-20 (assay buffer)) were captured on AHQ biosensors (ForteBio) at a level of about 1 nm. The loaded biosensors were washed with an assay buffer to remove any unbound protein. Then, the association rates, dissociation rates and response were measured, using an antigen of 100 nM (in PBS with 0.1% bovine serum albumin and 0.05% Tween-20).
Two rounds of humanizations were further performed. […] In the second round, many other variants were further constructed (including several mutations in the CDR sequences). Quickchange based site-directed mutagenesis or overlap PCR were performed to create expression plasmid of new versions of 2nd round humanized antibodies. All recombinant antibodies were expressed and purified as described in Example 1, then measured antigen binding affinity using BLI technology with the Octet Red384 instrument as mentioned above. To compare the functional activity of humanized antibodies with chimeric antibodies, NFAT assay was also performed.

[3] = target: T1, human TrkA on CellSensor TrkA-NFAT-bla …; assay: FACS on cells expressing human TrkA (FIG. 4A)
[4] = target: T2, extracellular domain (ECD) of human …; assay: SPR (BIAcore T200), antibody on protein G chip, PHA 0.625-20 nM injected
Method: The binding kinetics and affinities of the humanized antibodies were determined using a BIAcoreT200™ SPR system. Approximately 30 RU of the humanized antibody was immobilized on a protein G sensor chip and serial 2-fold dilutions of the PHA (0.625-20 nM) in 1×HBS-EP+ buffer were injected over the antibody-bound surface at a flow rate of 30 μl/min.

[5] = target: T2, extracellular domain (ECD) of human …; assay: BLI (Octet Red384), antibody captured on anti-human Fc AHQ tips, antigen 100 nM
Method: as §1

[6] = target: T2, extracellular domain (ECD) of human …; assay: BLI (Octet Red384), His-tagged TrkA ECD captured on Anti-Penta-HIS (HIS1K) biosensor, pAb01 as second antibody (90 s) after PHD48
Method: A bio-layer interferometry (BLI) method-based competition assay was performed on Octet Red384. Briefly, Anti-Penta-HIS (HIS1K) Biosensor (Fortebio) was put in PBS with 0.1% w/v bovine serum albumin and 0.05% Tween-20 (assay buffer) for a minimum of 10 min in the pre-wetting plate. The TrKA ECD protein at 100 nM in assay buffer was captured on the sensor to obtain a capture level of 0.3˜1 nm. The loaded biosensors were then equilibrated with an assay buffer for a minimum of 30s followed by binding of the first antibody for 90s. After the second equilibration, the second antibody was loaded for 90s.

[7] = target: T1, human TrkA on CellSensor TrkA-NFAT-bla …; assay: cell-based or functional assay; remark: listed apart in the source
[8] = target: T1, human TrkA on CellSensor TrkA-NFAT-bla …; assay: cell-based or functional assay; remark: listed apart in the source
[9] = target: T2, extracellular domain (ECD) of human …; assay: indirect ELISA on coated PHA (human TrkA ECD, 1 ug/mL), anti-mouse IgG-HRP, OD450
Method: Hybridoma supernatants were initially screened with human TrkA by indirect ELISA. Briefly, purified PHA was diluted to a final concentration of 1 μg/mL in PBS buffer. 100 μL of the diluted antigen was added to each well of a 96-well plate, and incubated at 4° C. overnight. The plates were washed with PBST (PBS comprising 0.05% Tween-20, pH 7.4) for three times, then 200 μl/well of 2% bovine serum albumin (BSA) diluted in PBST was added and incubated at room temperature for 2 hours for blocking. The blocking solution was removed, and the plate was washed 3 times with 300 μl PBST. The diluted solutions of primary and secondary antibodies, along with substrate solution was prepared. 100 μl of diluted primary antibody was pipetted in each well and was incubated for 1 hour at room temperature. The content in the wells was removed and washed for 3 times with 300 μl PBST buffer. PBS was removed from the plates. 100 μl of diluted Peroxidase-AffiniPure Goat Anti-Mouse IgG was added in each well and incubated for 1 hour at 37° C. The content in the wells was removed and the wells were washed for 3 times with 300 μl PBST. 100 μl of TMB substrate solution was added to the wells. After sufficient color development, 100 μl of stop solution was added to the wells to terminate the reaction. Read the absorbance (OD: 450) of each well with a microplate reader and the data were analyzed.

[10] = target: T1, human TrkA on CellSensor TrkA-NFAT-bla …; assay: FACS on CellSensor TrkA-NFAT-bla CHO-K1 cells (human TrkA), APC goat anti-mouse IgG
Method: (§2) The ELISA-positive antibody producing clones were further verified by fluorescence-activated cell sorting (FACS) using a conventional method. Briefly, CellSensor® TrkA-NFAT-bla CHO-K1 cells (cells overexpressing human TrkA) were stained with anti-TrkA antibody in U-bottom 96-well plates. The cells were resuspended to 2×10⁶ cells/ml in ice cold PBS. The diluted solutions of primary and secondary antibodies were prepared, and 100 μl of the diluted primary antibody was added in each well, and incubated for 1 hours at 4° C. in the dark. The cells were washed for 2 times by centrifugation at 2500 rpm for 3 min and resuspended in ice cold PBS. The APC Goat anti-Mouse IgG was diluted in cold PBS at the […] and then the cells were resuspended in 100 μl of this solution. The cells were washed for 2 times by centrifugation at 2500 rpm for 3 min and resuspended in 100 μl ice cold PBS. The cell suspension was stored immediately at 4° C. in the dark. The cells were analyzed on the flow cytometer as soon as possible.

[11] = target: T1, human TrkA on CellSensor TrkA-NFAT-bla …; assay: FACS on CellSensor TrkA-NFAT-bla CHO-K1 cells (human TrkA), APC goat anti-mouse IgG; y axis without label
Method: as §2

[12] = target: T1, human TrkA on CellSensor TrkA-NFAT-bla …; assay: FACS on cells expressing human TrkA (FIG. 5A)
[13] = target: T2, extracellular domain (ECD) of human …; assay: affinity after affinity maturation; method not stated in Example 5
[14] = target: T2, extracellular domain (ECD) of human …; assay: affinity after affinity maturation; method not stated in Example 5; measured in the affinity maturation series of Example 5, not the humanization series of the 11th table

T2 sequence (P04629 33-423): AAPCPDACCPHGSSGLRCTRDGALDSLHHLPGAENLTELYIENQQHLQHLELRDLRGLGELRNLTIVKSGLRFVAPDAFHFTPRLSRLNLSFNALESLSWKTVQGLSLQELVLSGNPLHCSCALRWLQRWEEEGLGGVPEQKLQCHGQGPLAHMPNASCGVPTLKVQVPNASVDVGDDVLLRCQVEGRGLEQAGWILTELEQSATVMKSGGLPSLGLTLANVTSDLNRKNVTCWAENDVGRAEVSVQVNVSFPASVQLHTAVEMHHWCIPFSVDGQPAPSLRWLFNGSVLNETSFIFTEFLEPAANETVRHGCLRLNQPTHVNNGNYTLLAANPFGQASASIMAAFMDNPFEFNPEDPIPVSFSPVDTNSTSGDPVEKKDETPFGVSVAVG
T1 sequence (P04629 33-796 limits assumed, form in doubt): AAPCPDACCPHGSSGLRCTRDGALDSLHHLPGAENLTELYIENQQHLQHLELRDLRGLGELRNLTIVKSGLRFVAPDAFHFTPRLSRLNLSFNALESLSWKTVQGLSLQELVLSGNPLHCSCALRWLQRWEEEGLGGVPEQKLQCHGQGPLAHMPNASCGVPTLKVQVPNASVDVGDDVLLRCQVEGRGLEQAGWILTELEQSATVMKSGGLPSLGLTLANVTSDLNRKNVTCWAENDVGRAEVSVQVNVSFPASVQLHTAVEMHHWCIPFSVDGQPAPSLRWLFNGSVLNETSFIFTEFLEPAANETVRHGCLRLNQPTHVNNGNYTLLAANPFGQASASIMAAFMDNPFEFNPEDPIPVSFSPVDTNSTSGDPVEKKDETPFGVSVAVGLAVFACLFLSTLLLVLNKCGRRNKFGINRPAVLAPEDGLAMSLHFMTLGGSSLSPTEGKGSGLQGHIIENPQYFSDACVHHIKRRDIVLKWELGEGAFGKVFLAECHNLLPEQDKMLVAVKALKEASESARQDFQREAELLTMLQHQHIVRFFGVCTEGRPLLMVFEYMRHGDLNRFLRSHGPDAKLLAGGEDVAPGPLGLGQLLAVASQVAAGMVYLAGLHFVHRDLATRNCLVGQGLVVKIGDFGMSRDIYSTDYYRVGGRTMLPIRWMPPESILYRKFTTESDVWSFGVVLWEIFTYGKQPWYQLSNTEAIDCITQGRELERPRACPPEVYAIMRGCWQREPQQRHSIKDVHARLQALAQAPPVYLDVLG

Binder | Top; inhibition of NGF-induced TrkA activation in TrkA-NFAT-bla CHO-K1 reporter cells [1] | Kd [2] | koff [2] | kon [2] | EC50 [3] | Kd [4] | koff [4] | kon [4] | Kd [5] | koff [5] | kon [5] | IC50 in NFAT assay [7] | Top; inhibition of NGF-induced TrkA activation in TrkA-NFAT-bla CHO-K1 reporter cells [8] | EC50 [12] | other results
B1 | 1.1 Response Ratio | 2.8 nM | 0.000761 s⁻¹ | 272000 M⁻¹ s⁻¹ | 0.112 µg/mL | 4.06 nM | 0.00069 s⁻¹ | 170000 M⁻¹ s⁻¹ | 5.33 nM | 0.00114 s⁻¹ | 214000 M⁻¹ s⁻¹ | – | – | – | IC50; inhibition of NGF-induced TrkA activation in TrkA-NFAT-bla CHO-K1 reporter cells [1]: 1.12 nM
B2 | – | – | – | – | – | – | – | – | – | – | – | – | – | – | binding result [6]: binds
B3 | – | – | – | – | – | – | – | – | – | – | – | 0.404 nM | 0.796 Response Ratio | – | EC50 [9]: 1.07 nM; Top [9]: 1.94 OD450; EC50 [10]: 0.473 µg/mL; Top [11]: 173000
B4 | – | 3.62 nM | 0.000827 s⁻¹ | 229000 M⁻¹ s⁻¹ | – | – | – | – | 1.79 nM | 0.000603 s⁻¹ | 337000 M⁻¹ s⁻¹ | – | 1.04 Response Ratio | 0.157 µg/mL | EC50 (so labelled in the drawn table; a falling inhibition curve, the text calls this value IC50); inhibition of NGF-induced TrkA activation in TrkA-NFAT-bla CHO-K1 reporter cells [8]: 0.793 nM; koff [13]: 0.000665 s⁻¹; kon [13]: 219000 M⁻¹ s⁻¹; Kd [14]: 3.04 nM
B5 | – | – | – | – | – | – | – | – | 4.84 nM | 0.00098 s⁻¹ | 203000 M⁻¹ s⁻¹ | ~0.604 nM | 1.1 Response Ratio | ~0.198 µg/mL | –
B6 | 1.02 Response Ratio | 3.07 nM | 0.000634 s⁻¹ | 207000 M⁻¹ s⁻¹ | ~0.142 µg/mL | 2.34 nM | 0.000524 s⁻¹ | 224000 M⁻¹ s⁻¹ | 3.07 nM | 0.000634 s⁻¹ | 207000 M⁻¹ s⁻¹ | – | – | – | IC50 in NFAT antagonistic assay [7]: ~0.345 nM
